Here are results for two molecules from patent publication US9115359B2, “Methods for producing secondary metabolites” (NewSouth Innovations Pty Limited, priority 2007, dated 2015).

One data set concerns E. coli AcpS. Particulars: reported (21,40); with respect to CoA; cited from earlier work.
A further data set deals with HetM ArCP. The data set is described as follows: NhcS PPT assay, ESI-MS. The class given is biochemical, N. punctiforme ATCC29133. Particulars: 30 minutes, 37° C. The method, then:
(§1) PPT assays were carried out as previously described in Finking, R., et al., (2002) Characterization of a new type of phosphopantetheinyl transferase for fatty acid and siderophore synthesis in Pseudomonas aeruginosa. J Biol Chem 277:50293-302). In brief, a 100-400 μL reaction comprising of 50 mM Tris-HCl pH 7.4, 12.5 mM MgCl, 0.5 mM CoA, 2 μM DTT, 30 μg of the respective carrier proteins (CPs) and 300 nM of PPT was incubated at 37° C. for 30 minutes. Reactions were terminated by the addition of 1 ml of 10% TCA. Assays were precipitated overnight at −20° C. before at centrifugation 4° C., for 15 mins at 16,000 g. Protein pellets were analysed by electrospray ionisation mass spectrometry (ESI-MS). Spectra were acquired using an API QStar Pulsar i hybrid tandem mass spectrometer (Applied Biosystems, Foster City Calif.). Samples (˜200-400 fmol) were dissolved in water:acetonitrile:formic acid (50:49:1), loaded (1 μl) into nanospray needles (Proxeon, Denmark) and the tip positioned ˜10 mm from the orifice. Nitrogen was used as curtain gas and a potential of 900 V applied to the needle. A T of MS scan was acquired (m/z 550-2000, 1 second) and accumulated for ˜1 minute into a single file. […]
(§2) Activity was detected by ionisation mass spectrometry through the mass addition of […], relating to the incorporation of the pantetheinyl arm of CoA transferred by the PPT to the CP (FIG. 17).

Another data set deals with Mpcp. The data set is described as follows: NhcS PPT assay, ESI-MS. The class given is biochemical, Microcystis aeruginosa. Particulars: 30 min assay. The method, then: as §1, §2
The subject of the next data set is Nppcp. The data set is described as follows: NhcS PPT assay, ESI-MS. It is filed as biochemical, Nostoc punctiforme. Particulars: 30 minutes, 37° C. The method, then: as §1, §2
In data set [1] the test system is Synechocystis sp. PCC6803. The data set is described as follows: Complementation of Sppt gene disruption with NsPPT. The class given is cell-based. As to conditions: PCR screening of segregation. From the text:
A 2.5 kb fragment including Sppt (slr0495, Swissprot accession number Q55185) was amplified with the primers sirup (5′-[…]-3′) (SEQ ID NO: 7) and slrdn (5′-[…]-3′) (SEQ ID NO: 8). This fragment was cloned into pGEM-T-Easy (Promega) and digested with the restriction enzyme AvaI. A chloramphenicol (Chl^R) resistance cassette was ligated into this site and the resulting plasmid, pGCSlr, was naturally transformed into Synechocystis sp. PCC6803 to insertionally inactivate Sppt using methods described in Eaton-Rye, J., 2004 The construction of gene knockouts in the cyanobacterium Synechocystis sp. PCC 6803, Methods Mol. Biol.; 274:309-24. The Synechocystis sp. PCC6803 wildtype (WT) was also transformed with a chloramphenicol resistance knockout plasmid as a positive control for strain viability. Briefly, approximately 2 ml Synechocystis sp. PCC6803 cells were centrifuged and washed in BG-11 media. After resuspension in […] BG-11, 3 μg ml^−1 plasmid was added and the cells were incubated at 25° C. in 30 μmol m^−2 sec^−1 constant light for 6 hours. The cells were spread onto sterile nitrocellulose filters (0.45 μm, Millipore, Billerica Mass.) on non-selective BGTS plates (BG-11, 10 mM TES, 0.3% sodium thiosulfate, 1% agar). After 36 hours, the filters were transferred to selective BGTS plates with 10 μg ml^−1 chloramphenicol. […]

Take `CC(C)(COP(=O)(O)OP(=O)(O)OC[C@H]1O[C@@H](n2cnc3c(N)ncnc32)[C@H](O)[C@@H]1OP(=O)(O)O)[C@@H](O)C(=O)NCCC(=O)NCCS` [CoA, co-enzyme A]: the kcat value entry in the data set on E. coli AcpS is “approximately 10 min^d”.

B1: NhcS: phosphopantetheinyl transferase (heterocyst carrier protein synthase) from Nodularia spumigena NSOR10 (protein)
chain: MTALNHLWLPVPTNLTLLPNDVHIWRIHLDVPEAQQQNLLATLSGDELTRANRFHFQEHRQRFIAGRGILRSILGSYLGIEPQRVLFDYQERGKPILADSLAKSGLWFNLSHSQGLALCAVNYHNRIGIDLEYIRRMSDVEALAKRFFLPREYDVVRSLSDHQQQEIFFRYWTCKEAYLKATGEGLAQLEQVEVLLNPTEPAQLQTSESWSLFELRAAEDYFAAVVVEGSGCNLQCWQY
Take B1: the “conversion of apo-ArCP to holo-ArCP” value with HetM ArCP was “conversion of the apo-ArCP (15.75 kDa) to the holo-ArCP (16.05 kDa) is seen”. The “pantetheinylation of Mpcp” value in the data set with Mpcp is “Complete pantetheinylation”. In addition, the “pantetheinylation of Nppcp” value with Nppcp was “Nppcp was pantetheinylated”. In addition, the “Sppt gene disruption in NsPPT-complemented strain” value in data set [1] is “Sppt was effectively disrupted in the NsPPT-complemented strain”.
